B1: Latent-transforming growth factor beta-binding protein 4 (Homo sapiens), Q8N2S1-1 (parent)
chain: MPRPGTSGRRPLLLVLLLPLFAAATSAASPSPSPSQVVEVPGVPSRPASVAVCRCCPGQTSRRSRCIRAFCRVRSCQPKKCAGPQRCLNPVPAVPSPSPSVRKRQVSLNWQPLTLQEARALLKRRRPRGPGGRGLLRRRPPQRAPAGKAPVLCPLICHNGGVCVKPDRCLCPPDFAGKFCQLHSSGARPPAPAVPGLTRSVYTMPLANHRDDEHGVASMVSVHVEHPQEASVVVHQVERVSGPWEEADAEAVARAEAAARAEAAAPYTVLAQSAPREDGYSDASGFGYCFRELRGGECASPLPGLRTQEVCCRGAGLAWGVHDCQLCSERLGNSERVSAPDGPCPTGFERVNGSCEDVDECATGGRCQHGECANTRGGYTCVCPDGFLLDSSRSSCISQHVISEAKGPCFRVLRDGGCSLPILRNITKQICCCSRVGKAWGRGCQLCPPFGSEGFREICPAGPGYHYSASDLRYNTRPLGQEPPRVSLSQPRTLPATSRPSAGFLPTHRLEPRPEPRPDPRPGPELPLPSIPAWTGPEIPESGPSSGMCQRNPQVCGPGRCISRPSGYTCACDSGFRLSPQGTRCIDVDECRRVPPPCAPGRCENSPGSFRCVCGPGFRAGPRAAECLDVDECHRVPPPCDLGRCENTPGSFLCVCPAGYQAAPHGASCQDVDECTQSPGLCGRGACKNLPGSFRCVCPAGFRGSACEEDVDECAQEPPPCGPGRCDNTAGSFHCACPAGFRSRGPGAPCQDVDECARSPPPCTYGRCENTEGSFQCVCPMGFQPNTAGSECEDVDECENHLACPGQECVNSPGSFQCRTCPSGHHLHRGRCTDVDECSSGAPPCGPHGHCTNTEGSFRCSCAPGYRAPSGRPGPCADVNECLEGDFCFPHGECLNTDGSFACTCAPGYRPGPRGASCLDVDECSEEDLCQSGICTNTDGSFECICPPGHRAGPDLASCLDVDECRERGPALCGSQRCENSPGSYRCVRDCDPGYHAGPEGTCDDVDECQEYGPEICGAQRCENTPGSYRCTPACDPGYQPTPGGGCQDVDECRNRSFCGAHAVCQNLPGSFQCLCDQGYEGARDGRHCVDVNECETLQGVCGAALCENVEGSFLCVCPNSPEEFDPMTGRCVPPRTSAGTFPGSQPQAPASPVLPARPPPPPLPRRPSTPRQGPVGSGRRECYFDTAAPDACDNILARNVTWQECCCTVGEGWGSGCRIQQCPGTETAEYQSLCPHGRGYLAPSGDLSLRRDVDECQLFRDQVCKSGVCVNTAPGYSCYCSNGYYYHTQRLECIDNDECADEEPACEGGRCVNTVGSYHCTCEPPLVLDGSQRRCVSNESQSLDDNLGVCWQEVGADLVCSHPRLDRQATYTECCCLYGEAWGMDCALCPAQDSDDFEALCNVLRPPAYSPPRPGGFGLPYEYGPDLGPPYQGLPYGPELYPPPALPYDPYPPPPGPFARREAPYGAPRFDMPDFEDDGGPYGESEAPAPPGPGTRWPYRSRDTRRSFPEPEEPPEGGSYAGSLAEPYEELEAEECGILDGCTNGRCVRVPEGFTCRCFDGYRLDMTRMACVDINECDEAEAASPLCVNARCLNTDGSFRCICRPGFAPTHQPHHCAPARPRA

Variants of: B1
Settings: with tgfb1_human TGFB1, P01137
Chain of tgfb1_human TGFB1, P01137 (P01137 whole entry): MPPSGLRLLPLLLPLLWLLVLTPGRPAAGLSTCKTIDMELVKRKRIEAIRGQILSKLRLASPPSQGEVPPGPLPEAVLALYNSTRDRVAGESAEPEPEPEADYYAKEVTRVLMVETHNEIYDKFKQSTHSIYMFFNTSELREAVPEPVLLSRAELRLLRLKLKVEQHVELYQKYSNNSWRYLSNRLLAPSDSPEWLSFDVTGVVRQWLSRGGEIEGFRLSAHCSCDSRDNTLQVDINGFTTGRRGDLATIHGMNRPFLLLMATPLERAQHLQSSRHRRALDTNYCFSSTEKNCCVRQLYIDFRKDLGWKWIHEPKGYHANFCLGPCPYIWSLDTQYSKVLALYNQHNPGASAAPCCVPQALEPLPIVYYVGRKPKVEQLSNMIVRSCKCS

Row | effect of a mutation on the interaction | Variant
1 | with no effect | V194I;T787A;T820A;T1141M
2 | with no effect | T1141M

From IntAct's records for PubMed 26918958
